The target of assay [1] is T1, recombinant biotin tagged IL-7 Receptor-alpha (IL-7Rα) (Acrobiosystems #IL-7-H82F8) (UniProt P16871 21-236, biotin tag (site not stated)).
T1 construct: Bought reagent; also called IL-7Ra; α receptor
T1 sequence (looked up): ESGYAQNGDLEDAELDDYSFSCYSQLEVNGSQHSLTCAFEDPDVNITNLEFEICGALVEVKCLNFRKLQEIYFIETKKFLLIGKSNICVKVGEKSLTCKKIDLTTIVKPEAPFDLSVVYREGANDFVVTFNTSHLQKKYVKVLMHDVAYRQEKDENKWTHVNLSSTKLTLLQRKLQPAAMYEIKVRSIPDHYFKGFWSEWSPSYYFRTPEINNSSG
The assay can be described thus: TR-FRET ligand-receptor binding assay, equilibrium fit. Here is the method:
(§1) IL-7 binding affinity was determined by measuring the TR-FRET fluorescence signal at a range of concentrations of recombinant IL-7 and IL-7 Receptor-alpha (IL-7Rα). In a buffer of PBS (pH 7.4)+0.05% BSA and 0.005% Tween-20, make 4×stocks of 160 nM TR-FRET acceptor linked α6-his IgG (Perkin Elmer #TRF0105-M), 80 nM TR-FRET donor linked streptavidin (Perkin Elmer #AD0062), recombinant 6-his tagged IL-7 wildtype or mutant variant (at concentrations up to 160 nM), and recombinant biotin tagged IL-7Rα (Acrobiosystems #IL-7-H82F8) (at concentrations up to 80 nM). For each sample to be tested, 5 μL of the 4× stock of a6-his IgG linked acceptor is mixed with 5 μL of a 4×working stock of IL-7. Separately, for each sample, 5 μL of 4×TR-FRET donor linked to streptavidin is mixed with 5 μL of the 4×working stock of recombinant IL-7Rα linked to biotin. Mixtures were incubated at room temperature for 30 minutes during which the 10 μL of a6-his linked acceptor/IL-7 mix was distributed into indicated wells in 384-well shallow black ProxiPlate (Perkin Elmer #6008260) and kept covered from light. After the 30 min incubation, 10 μL of streptavidin linked donor/IL-7Ra mixture was placed in designated wells containing designated concentration of IL-7 plus acceptor. Plates were immediately spun at 750 rpm for 30 sec and then immediately placed in PHERAstar plate reader (BMG Labtech) to read TR-FRET signal. Continuously over the next 30 minutes, fluorescence for donor signal (337 nm excitation/620 nm emission) and acceptor signal (337 nm excitation/655 nm emission) are read. The TR-FRET binding signal is determined by taking the ratio of acceptor signal over donor signal and multiplying by 10,000. Equilibrium is defined at the time point where the readings plateau before fluorescence activity begins to decay. Equilibrium values are then fit to a standard equilibrium equation assuming single site binding using the graphing program GraFit (Erithacus Software).
On the technique in general: TR-FRET usually uses a lanthanide donor and a delayed reading to cut background.

Assay [2] has as its target T1, recombinant biotin tagged IL-7 …. The experiment in a line: binding analysis with two Kd parameters, in-house against commercially obtained IL-7 (taken to be TR-FRET on IL-7Rα).
Assay [3] shares this target. The experiment in a line: TR-FRET, Expt. 1. Here is the method: as §1, with “Mixtures were incubated at room temperature for 30 minutes during which the 10 μL of a6-his linked acceptor/IL-7 mix was distributed into indicated wells in 384-well shallow black ProxiPlate (Perkin Elmer #6008260) and kept covered from light. After the 30 min incubation, 10 μL of streptavidin linked donor/IL-7Ra mixture was placed in designated wells containing designated concentration of IL-7 plus acceptor.” left out, “Equilibrium values are then fit to a standard equilibrium equation assuming single site binding using the graphing program GraFit (Erithacus Software).” left out

Assay [4] shares this target. The experiment in a line: TR-FRET, Expt. 2. Here is the method: as §1, with “Mixtures were incubated at room temperature for 30 minutes during which the 10 μL of a6-his linked acceptor/IL-7 mix was distributed into indicated wells in 384-well shallow black ProxiPlate (Perkin Elmer #6008260) and kept covered from light. After the 30 min incubation, 10 μL of streptavidin linked donor/IL-7Ra mixture was placed in designated wells containing designated concentration of IL-7 plus acceptor.” left out, “Equilibrium values are then fit to a standard equilibrium equation assuming single site binding using the graphing program GraFit (Erithacus Software).” left out

Assay [5] shares this target. The experiment in a line: TR-FRET, earlier analyses.
For assay [6] the target is unchanged. The assay can be described thus: TR-FRET, previous analyses.
For assay [7] the target is unchanged. The experiment in a line: TR-FRET, without receptor γ (FIG. 5). On the procedure:
as §1, with “Mixtures were incubated at room temperature for 30 minutes during which the 10 μL of a6-his linked acceptor/IL-7 mix was distributed into indicated wells in 384-well shallow black ProxiPlate (Perkin Elmer #6008260) and kept covered from light. After the 30 min incubation, 10 μL of streptavidin linked donor/IL-7Ra mixture was placed in designated wells containing designated concentration of IL-7 plus acceptor.” left out, “Equilibrium values are then fit to a standard equilibrium equation assuming single site binding using the graphing program GraFit (Erithacus Software).” left out

Assay [8] has the same target. The assay can be described thus: TR-FRET, only the α receptor present (FIG. 4). Here is the method:
as §1, with “Mixtures were incubated at room temperature for 30 minutes during which the 10 μL of a6-his linked acceptor/IL-7 mix was distributed into indicated wells in 384-well shallow black ProxiPlate (Perkin Elmer #6008260) and kept covered from light. After the 30 min incubation, 10 μL of streptavidin linked donor/IL-7Ra mixture was placed in designated wells containing designated concentration of IL-7 plus acceptor.” left out, “Equilibrium values are then fit to a standard equilibrium equation assuming single site binding using the graphing program GraFit (Erithacus Software).” left out

The target of assay [9] is T2, IL-7Rα with 20 nM receptor γ (UniProt P16871 21-236; P31785 23-262, biotin tag (site not stated)).
T2 chain 1: T1 sequence (looked up)
T2 chain 2: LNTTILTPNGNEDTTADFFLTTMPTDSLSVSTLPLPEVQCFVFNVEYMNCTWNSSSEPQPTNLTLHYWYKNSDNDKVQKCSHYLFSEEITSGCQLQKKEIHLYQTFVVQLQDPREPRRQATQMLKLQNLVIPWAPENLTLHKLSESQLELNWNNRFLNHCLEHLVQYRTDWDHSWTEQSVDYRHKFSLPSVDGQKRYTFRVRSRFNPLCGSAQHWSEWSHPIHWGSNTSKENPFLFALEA
The assay can be described thus: TR-FRET; with gamma.

Assay [10] has as its target T3, IL-7Rα with 20 nM receptor γ (UniProt P16871 21-236; P31785 23-262, biotin tag (site not stated)).
T3 construct: Mixture of IL-7Rα and soluble receptor γ in the TR-FRET assay; The fit treated the receptor chains as one combined unit; also called IL-7Ra with the γ subunit; IL-7 with γ
T3 sequence (looked up) 1: T1 sequence (looked up)
T3 sequence (looked up) 2: T2 chain 2
The assay can be described thus: TR-FRET, with 20 nM receptor γ against without (FIG. 5). On the procedure:
as §1, with “Mixtures were incubated at room temperature for 30 minutes during which the 10 μL of a6-his linked acceptor/IL-7 mix was distributed into indicated wells in 384-well shallow black ProxiPlate (Perkin Elmer #6008260) and kept covered from light. After the 30 min incubation, 10 μL of streptavidin linked donor/IL-7Ra mixture was placed in designated wells containing designated concentration of IL-7 plus acceptor.” left out, “Equilibrium values are then fit to a standard equilibrium equation assuming single site binding using the graphing program GraFit (Erithacus Software).” left out

Assay [11] deals with T1, recombinant biotin tagged IL-7 …. The experiment in a line: TR-FRET, His-tagged IL-7 and biotin IL-7Rα, equilibrium fit (FIG. 3). Here is the method: as §1, with “Mixtures were incubated at room temperature for 30 minutes during which the 10 μL of a6-his linked acceptor/IL-7 mix was distributed into indicated wells in 384-well shallow black ProxiPlate (Perkin Elmer #6008260) and kept covered from light. After the 30 min incubation, 10 μL of streptavidin linked donor/IL-7Ra mixture was placed in designated wells containing designated concentration of IL-7 plus acceptor.” left out, “Equilibrium values are then fit to a standard equilibrium equation assuming single site binding using the graphing program GraFit (Erithacus Software).” left out

This is an account of results in US20220251191A1 (ARCH ONCOLOGY, published 2022).

Numbering of substitutions follows the chain as printed.

B1: IL-7 WT (commercial-sourced) (ligand)
chain: MDCDIEGKDGKQYESVLMVSIDQLLDSMKEIGSNCLNNEFNFFKRHICDANKEGMFLFRAARKLRQFLKMNSTGDFDLHLLKVSEGTTILLNCTGQVKGRKPAALGEAQPTKSLEENKSLKEQKKLNDLCFLKRLLQEIKTCWNKILMGTKEH
notes: also called commercially obtained IL-7; commercial IL-7
The term Kd denotes the constant that tells how readily two partners part at equilibrium. As for B1, the Kd in [1] turned out to be 21.7 nM. For the same molecule, the “fold higher Kd than in-house IL-7” value in [2] was around 4 fold.

B2: IL-7 WT (in-house with His tag) (ligand)
chain: MDCDIEGKDGKQYESVLMVSIDQLLDSMKEIGSNCLNNEFNFFKRHICDANKEGMFLFRAARKLRQFLKMNSTGDFDLHLLKVSEGTTILLNCTGQVKGRKPAALGEAQPTKSLEENKSLKEQKKLNDLCFLKRLLQEIKTCWNKILMGTKEHENLYFQGHHHHHH
notes: also called IL-7 WT (in-house-His 6); in-house IL-7
Take B2: the Kd in assay [3] was found to be 14 nM; in assay [4] it was 20 nM; in [5], 6.6 nM; in [6] it was 6 nM; in assay [7] it was 12.1 nM; in assay [8], 20.2 nM. The Kd is 2.75 nM in assay [9], 17 nM in [1] and 5.44 nM in [11]. For the same molecule, the “fold increase in apparent affinity with receptor γ against without” value in assay [10] was found to be 5 fold.

B3: IL-7 S1 with C-terminal His-tag (ligand)
chain: B2 chain with K11I
notes: also called IL-7 mutant S1; S1 mutant
Take B3: the Kd worked out at 37 nM in assay [3], 72 nM in [4], 34.8 nM in [8] and 55 nM in assay [1].
